Assays:
TreCel7A = target: T1, TreCel7A (Trichoderma reesei, UniProt P62694); assay: competitive (product) inhibition of pNP-Lac hydrolysis, pH […] °C; format: biochemical
T1 construct: gene cbh1
T1 sequence (P62694 18-451): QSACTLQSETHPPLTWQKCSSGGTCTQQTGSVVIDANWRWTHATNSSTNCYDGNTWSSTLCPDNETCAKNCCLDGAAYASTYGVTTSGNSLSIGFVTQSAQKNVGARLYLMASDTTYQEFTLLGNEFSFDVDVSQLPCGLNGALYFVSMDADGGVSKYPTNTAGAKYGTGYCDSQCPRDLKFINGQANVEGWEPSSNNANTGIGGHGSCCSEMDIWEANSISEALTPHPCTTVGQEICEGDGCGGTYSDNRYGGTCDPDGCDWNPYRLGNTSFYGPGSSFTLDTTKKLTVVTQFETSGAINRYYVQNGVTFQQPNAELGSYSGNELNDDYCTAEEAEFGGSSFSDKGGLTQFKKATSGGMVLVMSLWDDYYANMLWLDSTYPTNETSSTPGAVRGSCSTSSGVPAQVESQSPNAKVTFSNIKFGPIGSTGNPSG

ThaCel7A = target: T2, ThaCel7A (Trichoderma harzianum, UniProt Q9P8P3); assay: as above; format: biochemical
T2 construct: gene cbh1
T2 sequence (Q9P8P3 18-443): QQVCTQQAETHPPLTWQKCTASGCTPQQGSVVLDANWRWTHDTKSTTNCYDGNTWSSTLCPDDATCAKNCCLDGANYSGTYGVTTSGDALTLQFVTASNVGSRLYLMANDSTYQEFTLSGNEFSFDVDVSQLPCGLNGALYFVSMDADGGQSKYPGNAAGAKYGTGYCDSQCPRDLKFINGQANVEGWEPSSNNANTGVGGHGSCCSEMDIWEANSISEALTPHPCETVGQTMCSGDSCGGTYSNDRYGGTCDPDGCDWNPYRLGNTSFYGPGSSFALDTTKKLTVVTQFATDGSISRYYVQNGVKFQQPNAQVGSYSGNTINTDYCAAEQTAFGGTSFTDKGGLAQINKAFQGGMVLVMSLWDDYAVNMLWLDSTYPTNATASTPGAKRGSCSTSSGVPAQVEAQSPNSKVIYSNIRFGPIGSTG

TatCel7A = target: T3, TatCel7A (Trichoderma atroviride, UniProt G9NTY1); assay: as above; format: biochemical
T3 construct: gene TRIATDRAFT_88458

purified protein [1] = substrate: [H][C@@]1(O[C@H]2[C@H](O)[C@@H](O)[C@H](Oc3ccc([N+](=O)[O-])cc3)O[C@@H]2CO)O[C@H](CO)[C@H](O)[C@H](O)[C@H]1O; assay: purified protein; format: biochemical, Trichoderma atroviride; details: subsites (−[…]/−[…]/+[…]) where pNP-Lac should bind for hydrolysis; pH 4.5; 30.0 °C
purified protein [2] = substrate: [H][C@@]1(O[C@H]2[C@H](O)[C@@H](O)[C@H](Oc3ccc([N+](=O)[O-])cc3)O[C@@H]2CO)O[C@H](CO)[C@H](O)[C@H](O)[C@H]1O; assay: purified protein; format: biochemical, Trichoderma reesei; details: subsites (−[…]/−[…]/+[…]) where pNP-Lac should bind for hydrolysis; pH 4.5; 30.0 °C
purified protein [3] = substrate: [H][C@@]1(O[C@H]2[C@H](O)[C@@H](O)[C@H](Oc3ccc([N+](=O)[O-])cc3)O[C@@H]2CO)O[C@H](CO)[C@H](O)[C@H](O)[C@H]1O; assay: purified protein; format: biochemical, Trichoderma harzianum; details: subsites (−[…]/−[…]/+[…]) where pNP-Lac should bind for hydrolysis; pH 4.5; 30.0 °C

Molecule: OC[C@H]1O[C@@H](O[C@H]2[C@H](O)[C@@H](O)C(O)O[C@@H]2CO)[C@H](O)[C@@H](O)[C@@H]1O (stereo partly drawn) [cellobiose]
- Ki (TreCel7A): 24 µM
- Ki (ThaCel7A): 49 µM
- Ki (TatCel7A): 72 µM

B1: TatCel7A (Trichoderma atroviride IMI 206040) (protein)
chain: QQVCTTQAETHPALSWSKCTSGGSCTTQAGKVVLDANWRWTHAYPSGNNCYNGNTWDATLCPDDATCAKNCCLEGADYSGTYGVTTSGNQLTIDFVTQSANKNVGARLYLMASDTAYEEFTLLNNEFSFDVDVSALPCGLNGALYFVSMDADGGASKYPTNLAGAKYGTGYCDSQCPRDLKFISGQANVEGWQPSSNNANTGIGGHGSCCSEMDIWEANSISQALTPHPCETVGQVTCSGDDCGGTYSNNRYGGTCDPDGCDWNPYRLGNHTFYGPGSGFTVDTTKKITVVTQFSSTGINRYYVQNGVKFVQPNASGLSGYTGNTINSAYCSAEQTAFGGTSFTDKGGLTQMNKALSGGMVLVLSLWDDYAANMLWLDSTYPTNDTASTPGAARGTCSTSSGVPATVEQQSPNSKVVFSNIKFGPIGSTG
- Km (purified protein [1]): 1000 µM
- kcat (purified protein [1]): 0.019 s⁻¹
- kcat/Km (purified protein [1]): 19 M⁻¹ s⁻¹

B2: TreCel7A (Trichoderma reesei) (protein)
chain: QSACTLQSETHPPLTWQKCSSGGTCTQQTGSVVIDANWRWTHATNSSTNCYDGNTWSSTLCPDNETCAKNCCLDGAAYASTYGVTTSGNSLSIGFVTQSAQKNVGARLYLMASDTTYQEFTLLGNEFSFDVDVSQLPCGLNGALYFVSMDADGGVSKYPTNTAGAKYGTGYCDSQCPRDLKFINGQANVEGWEPSSNNANTGIGGHGSCCSEMDIWEANSISEALTPHPCTTVGQEICEGDGCGGTYSDNRYGGTCDPDGCDWNPYRLGNTSFYGPGSSFTLDTTKKLTVVTQFETSGAINRYYVQNGVTFQQPNAELGSYSGNELNDDYCTAEEAEFGGSSFSDKGGLTQFKKATSGGMVLVMSLWDDYYANMLWLDSTYPTNETSSTPGAVRGSCSTSSGVPAQVESQSPNAKVTFSNIKFGPIGSTGNPSG
- Km (purified protein [2]): 720 µM
- kcat (purified protein [2]): 0.057 s⁻¹
- kcat/Km (purified protein [2]): 79 M⁻¹ s⁻¹

B3: ThaCel7A (Trichoderma harzianum) (protein)
chain: QQVCTQQAETHPPLTWQKCTASGCTPQQGSVVLDANWRWTHDTKSTTNCYDGNTWSSTLCPDDATCAKNCCLDGANYSGTYGVTTSGDALTLQFVTASNVGSRLYLMANDSTYQEFTLSGNEFSFDVDVSQLPCGLNGALYFVSMDADGGQSKYPGNAAGAKYGTGYCDSQCPRDLKFINGQANVEGWEPSSNNANTGVGGHGSCCSEMDIWEANSISEALTPHPCETVGQTMCSGDSCGGTYSNDRYGGTCDPDGCDWNPYRLGNTSFYGPGSSFALDTTKKLTVVTQFATDGSISRYYVQNGVKFQQPNAQVGSYSGNTINTDYCAAEQTAFGGTSFTDKGGLAQINKAFQGGMVLVMSLWDDYAVNMLWLDSTYPTNATASTPGAKRGSCSTSSGVPAQVEAQSPNSKVIYSNIRFGPIGSTG
- Km (purified protein [3]): 900 µM
- kcat (purified protein [3]): 0.067 s⁻¹
- kcat/Km (purified protein [3]): 75 M⁻¹ s⁻¹
